Results on one protein are retold here after article PMC9723649.

Substrate in series [1]: N[C@@H](CO)C(=O)O
Nature of the series: purified protein.

Substrate in series [2]: Nc1ncnc2c1ncn2[C@@H]1O[C@H](COP(=O)(O)OP(=O)(O)OP(=O)(O)O)[C@@H](O)[C@H]1O
Nature of the series: purified protein.

B1: SARS2 (human mitochondrial seryl-tRNA synthetase, mature form) (Homo sapiens) (protein)
chain: TTEKRNRNLLYEYAREGYSALPQLDIERFCACPEEAAHALELRKGELRSADLPAIISTWQELRQLQEQIRSLEEEKAAVTEAVRALLANQDSGEVQQDPKYQGLRARGREIRKELVHLYPREAQLEEQFYLQALKLPNQTHPDVPVGDESQARVLHMVGDKPVFSFQPRGHLEIGEKLDIIRQKRLSHVSGHRSYYLRGAGALLQHGLVNFTFNKLLRRGFTPMTVPDLLRGAVFEGCGMTPNANPSQIYNIDPARFKDLNLAGTAEVGLAGYFMDHTVAFRDLPVRMVCSSTCYRAETNTGQEPRGLYRVHHFTKVEMFGVTGPGLEQSSQLLEEFLSLQMEILTELGLHFRVLDMPTQELGLPAYRKFDIEAWMPGRGRFGEVTSASNCTDFQSRRLHIMFQTEAGELQFAHTVNATACAVPRLLIALLESNQQKDGSVLVPPALQSYLGTDRITAPTHVPLQYIGPNQPRKPGLPGQPAVS
With B1, the Km in the series “purified protein [1]” was found to be 2400 ± 40 µM; in the series “purified protein [2]”, 112.83 ± 10.54 µM.
